Data reported in IntAct's records for PubMed 35512704.

B1: Speckle-type POZ protein (Homo sapiens), O43791 (parent)
chain: MSRVPSPPPPAEMSSGPVAESWCYTQIKVVKFSYMWTINNFSFCREEMGEVIKSSTFSSGANDKLKWCLRVNPKGLDEESKDYLSLYLLLVSCPKSEVRAKFKFSILNAKGEETKAMESQRAYRFVQGKDWGFKKFIRRDFLLDEANGLLPDDKLTLFCEVSVVQDSVNISGQNTMNMVKVPECRLADELGGLWENSRFTDCCLCVAGQEFQAHKAILAARSPVFSAMFEHEMEESKKNRVEINDVEPEVFKEMMCFIYTGKAPNLDKMADDLLAAADKYALERLKVMCEDALCSNLSVENAAEILILADLHSADQLKTQAVDFINYHASDVLETSGWKSMVVSHPHLVAEAYRSLASAQCPFLGPPRKRLKQS
partner: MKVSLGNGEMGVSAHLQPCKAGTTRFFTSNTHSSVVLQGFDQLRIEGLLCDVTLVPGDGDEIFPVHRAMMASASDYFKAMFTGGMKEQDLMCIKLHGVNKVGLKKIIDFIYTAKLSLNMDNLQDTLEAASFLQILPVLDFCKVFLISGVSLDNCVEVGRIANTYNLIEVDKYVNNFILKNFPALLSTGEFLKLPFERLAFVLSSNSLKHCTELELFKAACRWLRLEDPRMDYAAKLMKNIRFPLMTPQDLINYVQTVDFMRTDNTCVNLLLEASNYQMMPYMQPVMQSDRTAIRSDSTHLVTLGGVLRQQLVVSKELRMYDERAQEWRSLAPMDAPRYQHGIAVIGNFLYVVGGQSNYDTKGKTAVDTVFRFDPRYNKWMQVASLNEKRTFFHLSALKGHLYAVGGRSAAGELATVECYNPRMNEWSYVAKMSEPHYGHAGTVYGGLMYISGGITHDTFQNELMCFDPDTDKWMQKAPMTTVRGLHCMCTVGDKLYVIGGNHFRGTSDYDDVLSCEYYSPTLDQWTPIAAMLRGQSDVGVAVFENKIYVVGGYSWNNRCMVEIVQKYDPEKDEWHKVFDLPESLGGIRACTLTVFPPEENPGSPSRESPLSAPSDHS
B2: Speckle-type POZ protein (Homo sapiens), O43791 (parent)
chain: B1 chain
partner: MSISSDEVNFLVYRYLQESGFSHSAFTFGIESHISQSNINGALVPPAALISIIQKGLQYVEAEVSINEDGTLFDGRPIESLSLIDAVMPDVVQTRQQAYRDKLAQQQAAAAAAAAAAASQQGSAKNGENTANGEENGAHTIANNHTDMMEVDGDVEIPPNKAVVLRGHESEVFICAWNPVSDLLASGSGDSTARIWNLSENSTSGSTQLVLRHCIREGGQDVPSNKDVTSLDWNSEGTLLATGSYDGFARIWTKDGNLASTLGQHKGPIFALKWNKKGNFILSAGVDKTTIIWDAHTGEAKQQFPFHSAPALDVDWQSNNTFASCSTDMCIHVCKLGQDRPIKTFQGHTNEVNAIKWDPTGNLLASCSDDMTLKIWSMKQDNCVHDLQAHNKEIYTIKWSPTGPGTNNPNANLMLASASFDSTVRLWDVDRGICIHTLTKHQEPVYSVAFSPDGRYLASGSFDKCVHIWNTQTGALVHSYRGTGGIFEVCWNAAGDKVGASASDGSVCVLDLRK
B3: Speckle-type POZ protein (Homo sapiens), O43791 (parent)
chain: B1 chain
partner: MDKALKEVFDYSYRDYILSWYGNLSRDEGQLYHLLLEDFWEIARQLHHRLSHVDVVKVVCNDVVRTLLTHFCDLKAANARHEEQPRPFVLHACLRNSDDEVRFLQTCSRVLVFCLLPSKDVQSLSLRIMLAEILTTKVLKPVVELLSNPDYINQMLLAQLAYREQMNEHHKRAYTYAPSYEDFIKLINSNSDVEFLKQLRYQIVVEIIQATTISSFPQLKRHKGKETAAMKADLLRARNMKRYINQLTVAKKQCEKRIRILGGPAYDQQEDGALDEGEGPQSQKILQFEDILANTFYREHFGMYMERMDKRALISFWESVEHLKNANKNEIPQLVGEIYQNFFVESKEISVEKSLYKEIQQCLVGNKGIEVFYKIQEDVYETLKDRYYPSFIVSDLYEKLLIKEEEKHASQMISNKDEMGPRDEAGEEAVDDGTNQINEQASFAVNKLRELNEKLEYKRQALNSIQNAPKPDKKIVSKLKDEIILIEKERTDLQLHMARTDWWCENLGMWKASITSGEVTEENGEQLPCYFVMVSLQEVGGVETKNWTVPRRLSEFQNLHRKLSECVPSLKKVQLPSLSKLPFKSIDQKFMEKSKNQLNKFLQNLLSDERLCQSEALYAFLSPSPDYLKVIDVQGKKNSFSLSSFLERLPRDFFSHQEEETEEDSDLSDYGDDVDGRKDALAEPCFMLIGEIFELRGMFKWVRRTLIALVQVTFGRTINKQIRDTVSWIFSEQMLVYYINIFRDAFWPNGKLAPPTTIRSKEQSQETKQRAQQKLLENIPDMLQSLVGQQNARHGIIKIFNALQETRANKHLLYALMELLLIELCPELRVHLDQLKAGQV
B4: Speckle-type POZ protein (Homo sapiens), O43791 (parent)
chain: B1 chain
partner: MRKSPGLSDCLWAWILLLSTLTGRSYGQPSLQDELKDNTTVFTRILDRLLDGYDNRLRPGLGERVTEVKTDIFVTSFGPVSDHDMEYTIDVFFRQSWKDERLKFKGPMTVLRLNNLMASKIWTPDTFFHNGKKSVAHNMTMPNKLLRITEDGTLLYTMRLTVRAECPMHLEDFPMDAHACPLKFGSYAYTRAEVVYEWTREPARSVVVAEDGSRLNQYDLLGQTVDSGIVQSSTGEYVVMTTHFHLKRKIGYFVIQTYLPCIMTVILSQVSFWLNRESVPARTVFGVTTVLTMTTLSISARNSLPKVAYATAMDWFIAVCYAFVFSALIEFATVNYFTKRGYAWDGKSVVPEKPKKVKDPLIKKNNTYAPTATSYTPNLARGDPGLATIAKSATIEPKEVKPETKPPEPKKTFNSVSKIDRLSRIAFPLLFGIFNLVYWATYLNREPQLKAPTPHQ
B5: Speckle-type POZ protein (Homo sapiens), O43791 (parent)
chain: B1 chain
partner: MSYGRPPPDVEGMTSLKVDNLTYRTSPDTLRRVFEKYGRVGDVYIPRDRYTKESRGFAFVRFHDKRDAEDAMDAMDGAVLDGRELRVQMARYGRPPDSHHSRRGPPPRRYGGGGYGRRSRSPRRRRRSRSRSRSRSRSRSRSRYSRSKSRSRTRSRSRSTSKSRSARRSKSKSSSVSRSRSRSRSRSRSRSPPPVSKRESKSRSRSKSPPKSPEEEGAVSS
B6: Speckle-type POZ protein (Homo sapiens), O43791 (parent)
chain: B1 chain
partner: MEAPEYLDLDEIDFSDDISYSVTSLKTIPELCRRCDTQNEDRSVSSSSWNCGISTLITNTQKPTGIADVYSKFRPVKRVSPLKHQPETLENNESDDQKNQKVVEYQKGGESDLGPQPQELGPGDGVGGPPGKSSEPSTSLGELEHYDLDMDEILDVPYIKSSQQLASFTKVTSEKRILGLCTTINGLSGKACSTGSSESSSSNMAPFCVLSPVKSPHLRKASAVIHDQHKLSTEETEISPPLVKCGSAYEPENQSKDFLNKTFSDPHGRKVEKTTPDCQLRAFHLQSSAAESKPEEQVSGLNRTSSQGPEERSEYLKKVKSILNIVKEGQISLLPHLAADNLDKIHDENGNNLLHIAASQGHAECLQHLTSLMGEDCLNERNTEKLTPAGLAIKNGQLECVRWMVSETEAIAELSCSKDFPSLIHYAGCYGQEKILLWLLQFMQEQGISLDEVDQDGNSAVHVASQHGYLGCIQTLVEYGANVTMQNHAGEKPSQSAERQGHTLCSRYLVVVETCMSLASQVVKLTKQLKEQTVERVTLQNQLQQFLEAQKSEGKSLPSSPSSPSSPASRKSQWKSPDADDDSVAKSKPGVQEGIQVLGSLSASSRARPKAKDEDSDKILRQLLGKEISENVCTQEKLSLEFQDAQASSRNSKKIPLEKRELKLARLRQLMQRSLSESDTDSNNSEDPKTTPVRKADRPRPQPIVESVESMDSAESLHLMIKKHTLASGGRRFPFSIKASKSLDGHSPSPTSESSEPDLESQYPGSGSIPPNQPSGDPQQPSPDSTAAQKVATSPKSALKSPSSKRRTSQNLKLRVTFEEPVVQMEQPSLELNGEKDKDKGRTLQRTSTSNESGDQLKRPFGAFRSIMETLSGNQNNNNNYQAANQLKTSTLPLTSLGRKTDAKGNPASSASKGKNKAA

Variants of: B1
Details: with klhl9_human KLHL9, Q9P2J3

| effect of a mutation on the interaction | Variant |
| --- | --- |
| with no effect | F133L |

Variants of: B1
Details: with klhl9_human KLHL9, Q9P2J3
Remark: another data set of the same source

| effect of a mutation on the interaction | Variant |
| --- | --- |
| with no effect | Y87C |

Variants of: B2
Details: with tbl1r_human TBL1XR1, Q9BZK7

| effect of a mutation on the interaction | Variant |
| --- | --- |
| with no effect | F133V |

Variants of: B2
Details: with tbl1r_human TBL1XR1, Q9BZK7
Remark: another data set of the same source

| effect of a mutation on the interaction | Variant |
| --- | --- |
| with no effect | F133L |

Variants of: B2
Details: with tbl1r_human TBL1XR1, Q9BZK7
Remark: another data set of the same source

| effect of a mutation on the interaction | Variant |
| --- | --- |
| with no effect | F102C |

Variants of: B2
Details: with tbl1r_human TBL1XR1, Q9BZK7
Remark: another data set of the same source

| effect of a mutation on the interaction | Variant |
| --- | --- |
| with no effect | Y87C |

Variants of: B3
Details: with snx25_human SNX25, Q9H3E2

| effect of a mutation on the interaction | Variant |
| --- | --- |
| with no effect | F102C |

Variants of: B3
Details: with snx25_human SNX25, Q9H3E2
Remark: another data set of the same source

| effect of a mutation on the interaction | Variant |
| --- | --- |
| with no effect | F133L |

Variants of: B3
Details: with snx25_human SNX25, Q9H3E2
Remark: another data set of the same source

| effect of a mutation on the interaction | Variant |
| --- | --- |
| with no effect | F133V |

Variants of: B3
Details: with snx25_human SNX25, Q9H3E2
Remark: another data set of the same source

| effect of a mutation on the interaction | Variant |
| --- | --- |
| with no effect | Y87C |

Variants of: B4
Details: with gbra1_human GABRA1, P14867

| effect of a mutation on the interaction | Variant |
| --- | --- |
| with no effect | Y87C |

Variants of: B5
Details: with srsf2_human SRSF2, Q01130

| effect of a mutation on the interaction | Variant |
| --- | --- |
| with no effect | Y87C |

Variants of: B5
Details: with srsf2_human SRSF2, Q01130
Remark: another data set of the same source

| effect of a mutation on the interaction | Variant |
| --- | --- |
| with no effect | F102C |

Variants of: B5
Details: with srsf2_human SRSF2, Q01130
Remark: another data set of the same source

| effect of a mutation on the interaction | Variant |
| --- | --- |
| with no effect | F133L |

Variants of: B5
Details: with srsf2_human SRSF2, Q01130
Remark: another data set of the same source

| effect of a mutation on the interaction | Variant |
| --- | --- |
| with no effect | F133V |

Variants of: B6
Details: with sncap_human SNCAIP

| effect of a mutation on the interaction | Variant |
| --- | --- |
| with no effect | Y87C |
